Test results reported in US20110263000.

Assays:
[1] = target: T1, bovine fibrinogen (Sigma Company), P02672
T1 chain 1: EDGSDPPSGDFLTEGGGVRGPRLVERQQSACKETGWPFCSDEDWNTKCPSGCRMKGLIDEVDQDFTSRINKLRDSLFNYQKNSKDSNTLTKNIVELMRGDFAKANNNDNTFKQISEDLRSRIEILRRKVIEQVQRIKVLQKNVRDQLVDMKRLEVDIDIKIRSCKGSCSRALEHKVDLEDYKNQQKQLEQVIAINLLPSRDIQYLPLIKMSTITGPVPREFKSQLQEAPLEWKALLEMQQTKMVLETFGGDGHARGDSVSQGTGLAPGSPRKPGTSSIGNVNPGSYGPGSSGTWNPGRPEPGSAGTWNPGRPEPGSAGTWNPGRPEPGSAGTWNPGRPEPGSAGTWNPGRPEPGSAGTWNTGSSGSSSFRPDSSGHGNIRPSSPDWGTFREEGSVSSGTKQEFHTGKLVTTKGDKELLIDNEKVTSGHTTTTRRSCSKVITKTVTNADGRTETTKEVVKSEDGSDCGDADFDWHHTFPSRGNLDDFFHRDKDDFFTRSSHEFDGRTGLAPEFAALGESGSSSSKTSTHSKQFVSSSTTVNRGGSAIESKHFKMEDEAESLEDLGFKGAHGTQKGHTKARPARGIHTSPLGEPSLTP
T1 chain 2: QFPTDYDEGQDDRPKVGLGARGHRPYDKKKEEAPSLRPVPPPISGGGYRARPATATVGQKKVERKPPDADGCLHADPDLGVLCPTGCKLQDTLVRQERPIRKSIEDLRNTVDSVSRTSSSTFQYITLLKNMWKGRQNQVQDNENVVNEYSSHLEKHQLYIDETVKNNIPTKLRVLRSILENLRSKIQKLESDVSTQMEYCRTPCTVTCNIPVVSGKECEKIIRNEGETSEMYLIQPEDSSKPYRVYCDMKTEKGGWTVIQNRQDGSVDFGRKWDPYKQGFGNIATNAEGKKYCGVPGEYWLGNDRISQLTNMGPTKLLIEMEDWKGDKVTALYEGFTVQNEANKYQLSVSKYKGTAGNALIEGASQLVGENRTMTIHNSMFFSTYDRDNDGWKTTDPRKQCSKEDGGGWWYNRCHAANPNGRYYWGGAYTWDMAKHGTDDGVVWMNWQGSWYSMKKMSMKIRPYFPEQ
T1 chain 3: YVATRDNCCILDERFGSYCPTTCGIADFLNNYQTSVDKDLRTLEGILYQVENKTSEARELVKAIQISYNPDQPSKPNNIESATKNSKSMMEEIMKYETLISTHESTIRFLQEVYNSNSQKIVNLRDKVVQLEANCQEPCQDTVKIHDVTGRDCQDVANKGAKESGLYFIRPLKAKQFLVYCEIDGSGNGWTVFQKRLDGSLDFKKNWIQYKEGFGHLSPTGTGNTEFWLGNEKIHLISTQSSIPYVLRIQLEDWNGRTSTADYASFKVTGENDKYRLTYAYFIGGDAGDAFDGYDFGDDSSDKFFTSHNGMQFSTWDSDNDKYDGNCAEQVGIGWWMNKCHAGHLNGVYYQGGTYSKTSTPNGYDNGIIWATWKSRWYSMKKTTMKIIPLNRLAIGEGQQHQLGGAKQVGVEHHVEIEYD

human fibrinogen, P02671 = target: T2, human fibrinogen, P02671
T2 chain 1: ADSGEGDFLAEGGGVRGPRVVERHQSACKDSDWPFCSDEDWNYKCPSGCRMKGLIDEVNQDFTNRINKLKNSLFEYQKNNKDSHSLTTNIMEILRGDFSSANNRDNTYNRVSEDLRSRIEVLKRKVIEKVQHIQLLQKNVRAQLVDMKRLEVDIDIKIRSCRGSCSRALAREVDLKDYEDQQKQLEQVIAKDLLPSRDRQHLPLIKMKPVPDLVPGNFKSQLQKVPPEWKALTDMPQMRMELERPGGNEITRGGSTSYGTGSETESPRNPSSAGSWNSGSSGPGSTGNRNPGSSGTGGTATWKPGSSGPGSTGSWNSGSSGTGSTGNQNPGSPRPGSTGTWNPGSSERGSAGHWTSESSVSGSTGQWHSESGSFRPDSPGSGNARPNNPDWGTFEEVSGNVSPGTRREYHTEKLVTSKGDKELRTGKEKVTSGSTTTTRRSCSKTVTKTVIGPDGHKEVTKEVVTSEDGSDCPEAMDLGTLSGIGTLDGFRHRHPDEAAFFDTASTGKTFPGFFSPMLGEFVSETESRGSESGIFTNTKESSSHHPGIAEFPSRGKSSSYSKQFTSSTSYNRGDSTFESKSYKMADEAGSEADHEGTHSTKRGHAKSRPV
T2 chain 2: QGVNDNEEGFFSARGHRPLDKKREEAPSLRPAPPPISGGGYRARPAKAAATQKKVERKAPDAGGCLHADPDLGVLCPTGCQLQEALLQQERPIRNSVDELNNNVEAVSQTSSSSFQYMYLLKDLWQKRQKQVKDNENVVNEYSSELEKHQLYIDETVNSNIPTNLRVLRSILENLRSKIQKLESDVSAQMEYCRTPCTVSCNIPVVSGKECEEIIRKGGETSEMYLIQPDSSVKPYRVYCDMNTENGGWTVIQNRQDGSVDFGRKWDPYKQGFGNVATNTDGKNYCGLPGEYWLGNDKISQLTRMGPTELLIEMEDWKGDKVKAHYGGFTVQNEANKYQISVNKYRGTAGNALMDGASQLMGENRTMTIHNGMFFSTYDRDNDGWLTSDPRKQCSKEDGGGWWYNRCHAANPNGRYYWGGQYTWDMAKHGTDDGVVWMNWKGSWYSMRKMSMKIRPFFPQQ
T2 chain 3: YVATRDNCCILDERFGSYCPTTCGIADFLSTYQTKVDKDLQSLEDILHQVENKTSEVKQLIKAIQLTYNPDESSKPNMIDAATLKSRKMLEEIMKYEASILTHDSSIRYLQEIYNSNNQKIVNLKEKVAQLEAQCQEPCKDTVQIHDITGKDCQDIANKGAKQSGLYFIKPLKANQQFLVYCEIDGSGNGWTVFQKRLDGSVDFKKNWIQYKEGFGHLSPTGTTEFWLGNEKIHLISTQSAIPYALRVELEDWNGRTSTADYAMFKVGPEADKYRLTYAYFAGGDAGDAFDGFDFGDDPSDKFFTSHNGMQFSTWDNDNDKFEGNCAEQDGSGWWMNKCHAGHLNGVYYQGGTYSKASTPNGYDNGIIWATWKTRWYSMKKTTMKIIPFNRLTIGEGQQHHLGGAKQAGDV

B1: hemocoagulase of Agkistrodon acutus (protein)
chain 1: DCSSGWSSYEGHCYKVFKQSKTWADAESFCTKQVNGGHLVSLESSGEADFVGQLLAQKLKSAKLHVWLGLRAQNKEKQCSLQWSDGSSLSYENWLEEESKKCLGVHLETGFHKWENFYCEQQDPFVCEA
chain 2: DCPSDWSSYEGHCYKPFNEPKNWADAENFCTKQHTGGHLVSFQSTEEADFVVKLAFQTFDYGLFWFGLSKLWNQCNWQWSNAAMLKYTDWAEESYCVYFKSTNNKWRSLTCRMLANFVCEFQA
Agglutination time (tube 1#, 10 µl distilled water added) [1]: 50 s
Agglutination time (tube 2#, 10 µl isopropanol added) [1]: 50 s
Agglutination time (tube 3#, 10 µl PMSF added) [1]: more than 600 seconds
hydrolysis of human fibrinogen, SDS-PAGE after 0.5 h, 1 h, 2 h and 4 h at 37° C. (human fibrinogen, P02671): After the fibrinogen was treated with the hemocoagulase (1 unit) for 0.5 h and 1 h, the band of alpha subunit became gradually light, and after being treated for 2 h and 4 h, the band of alpha subunit disappeared completely
